The nanobody polyreactivity screen of Harvey et al. (2022)

Assay: yeast display, Sf9 membrane polyspecificity reagent, FACS + sequencing; frameworks hold sequencing errors
Outline: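 Genes from sorted yeast were amplified by colony PCR, read by MiSeq 2 × 250 sequencing and filtered on CDR length. These cells carried a synthetic nanobody library in Saccharomyces cerevisiae BJ5465 and were sorted by FACS into low and high (top ~1%) gates on anti-HA and streptavidin fluorescence. Polyreactivity is labelled according to the gate of origin.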

Sequence | polyreactivity (PSR sort gate)
QVQLVESGGGLVQAGGSLRLSCAASGFTLRRYAMGWYRQAPGKERELVATITSGGTTDYADSVKGRFTISRDNAKNTVYLQMNSLKPEDTAVYYCAAYRRGAYYYWGQGTQVTVSS | high polyreactivity
QVQLVESGGGLVQAGGSLRLSCAASGNTFAFNAMVWYRQAPGKEREFVAAISYSGVSTYYADSEKGRFTISRDNAKNTVYLQMNSLKPEDTAVYYCAARYGWYKYWYDYWGQGTQGTVSS | high polyreactivity
QVQLVESRRGLVQAGGSLRLSCAASGRISNEYAMVWSRQAPGKERELVATITFSGGDTYYADSVKGRFTISRHNAKNTVYLHKNSLKPEDSAVYYCAASKWRSYCGGWWRLQFDYWGQGTQVTVSS | low polyreactivity
QVQLVESCGGLVQAGGSLRLSCSSSGRIFRGNAMGWYRQAPGKERELVAAILTGVTTYYADSVKGRFTISRDNAKNTVYLQTNSLKPEDTAVYYCAAERPSRRSGYEYWGQGTQVTVSS | low polyreactivity
QVQLVDSGGGLVQAGGSLRLSCAASGSIFGSYVMGWYRQAPGKERELVAAISSSGASTYYADSVKGRFTISRDNAKNTVYLQMNSLKPEDTAVYYCAAGYVHLYYFHEYYWGQGTQVTVSS | high polyreactivity
QVQLVESGGGLVQAGGSLRLSCAASGSTFGAYVMGWYRQAPGTERELVAVISSGGSTKYADSVKGRFTISRDNAKNTVYLQMNSLKPEDTAVYYCSARRASRHRYYPFDYWGQGTQVTVSS | high polyreactivity
QVQLVESGGRLVQAGGSLRLSCAASGRTFPVYAMGWYRQAPGKERELVAAISWSGGSTYYADSVKGRFTISRDNAKNTVYLQMNSLKPEDTAVYYCAKAYHLGLGYRFDYWGQGTQVTVSS | high polyreactivity
QVQLVESGGGLVQAGGSLRLSCAASGRTFTRYAMGWYRQAPGKERELVAAISRSGGSTHYADSVKGRFTISRDKAKNTVYLQMNSLKPEDTAVYYCNAQQGRYWSAKGYDYWGQGTQVTVSS | high polyreactivity
QVHLVESGGGLVQAGGSLRLSFAAYGIIFKYYAMVWYRQAPGKERELVASITDRGGSTYYSDSLKGRFTISRDNAKNTFYLQMNSLKPEDTAVYYCAAVPSTGKSGIRGGYWGQCTQVTVSS | high polyreactivity
QVQLVESGGGLVQAGGSLRLSCAASGFTFFYYVMGWYRQAPGKERELVAAITRGGSTYYADSVKGRFTISRDNAKNTVYLQMNSLKPEDTAVYYCNVAEPGYYYGYGDYGMDYWGQGTQVTVSS | high polyreactivity
QVQLVESGGGLVQAGGRLRLSCAASGRTFRRYTMGWDRQAPGKERELVAANTSGGRTNYADSVKGRFTISRDNAKNTVYLQMNSLKPEDTAVYYCNAQNEIWRVTFSPYDRWGYDYWGQGTQVTVSA | low polyreactivity
QVQLVESGGGLVQAGGSLRLSCAASVFTFPPYAMGWYRQAPGKERELVAAISSAGSTKYADSVKGRFTISRDNAKNTVYLQMNSLKPEDTAVYYCAARWARSYDYWGQGTQVTVSS | low polyreactivity
QDQLVESGGGLVQAGGSLCLSCAASGITFRFYAMGWNRQAPGKERELVAAISWSGGRTYYADSVKGRFTISRDNAKNTVYLQMNSLKPEDTAVYYCAAEASSVPGYDYWGEGTQVTVSS | low polyreactivity
QVQLVESGGGLVQAGGSLRLSCAASGSTFSYYAMGWYRQAPGKERELVAAITSGGRTKYADSVKGRFTISRDNAKNTVYLQMNSLKPEDTAVYYCAKRIEKFSGSLAGRWYDYWGQGTQVTVSS | high polyreactivity
QVQLVESGVGLVQAGGSLRLSCAASGSIFESYAMGWYRQAPGKVRELVADITYDGGITYYADSVKGRFTISRDNAKNTVYLQMNSLKPEDTAVYYCAKQYYFTFWGQGTQVTVSS | low polyreactivity
QVQLQESSGGLVQAGGSLRMSCAASGTIFHFHIMGWYRQAPGKESEFVAAISYGTSTYYADSVKGRFTISRDNAKNTVYLQMNSQKPEDSAVNYCAVYDYLEVYCWYWGQGTQVTVSS | low polyreactivity
QLKHVESGGGLVQAGGSLRLSCAASVGTFGLNAMGRYRQAPGKERELVADIDGRGGSTYYADSVKGRFTISRDNAKNTVNLQMNTLKPEDTAVYYCAARAPFLSVPSELDYCGQGTQVTVSS | low polyreactivity
QVQHVDSGVCLVQAGGSLRLSCDASGSIFGSYAMGWYRQPPGKERELVAAISKSVGNTYYADSVKGRFTISRDNAKNTVYLQMNSLKPEVTAVYYCAAYGFYRWRGYDYWGQGTQVTVSS | high polyreactivity
QVQLVESGGGLVQAGGSLRLSCAASGLTFKVYAMGWYRQAPGKERELVAAISWSGGSTYYADSVKGRFTISRDNAKNTVYLQMNSLKPEDTAVYYCAARGYAWYRGNYDYWGQGTQVTVSS | high polyreactivity
QVQLVESGGGLVQAGGSLRLSCAASGRTFGSYAMGWYRQAPGKERELVAAINWSGSSTYYADSVKGRFTISRDNAKNTVYLQMNSLKPEDTAVYYCAATPSFYRSYQGMDYWGQGTQVTVSS | high polyreactivity
QVQLVESGGGLVQAGGSLRLTCAASGSTFVNYTMGWYRQAPGKERELVAAIRYRDGSTYYADSVKGRFTISRDNAKNTVYLQMNSLKPEDTAVYYCNTRITQVGDYIYDYWGQGTQVTVSS | low polyreactivity
QVQLVESGGGLVQAGGSLRLSCAASGITFTRYAMGWYRQAPGKEMEFVAAIRRSGGNTYYADSVKGRFTISRDNAKNTVYLQMNSLKPEDTAVYYCAASFRKTSPTRLVDYWGQGTQVTVSS | low polyreactivity

Sequence | polyreactivity (PSR sort gate)
QVQLVESGGGLVQAGGSLRLSCAASGRIFWSYAMGWYRQAPGKEREFVAVITWSGGSTYYADSVKGRFTISRDNAKNTVYLQMNSLKPEDTAVYYCADGQWWYQVRFDYWGQGTQVTVSS | low polyreactivity
QVQLVESGGGLVQAGGSLRLSCAASGSIFDRNAMGWYRQAPGKERELVAAISVSGGSTYYADSVKGRFTISRDNAKNTVYLQMNSLKPEDTAVYYCAKAGRYANLPYGYWGQGTQVTVSS | high polyreactivity
QVQLVESGGGLVQAGGSLRLSCAASGFTFRAYAMGWYRQAPGKERELVAAITRSGVSTYYADSVKGRFTISRDNAKNTVYLQMNSLKPEDTAVYYCAAVAQRVGRSGTIEGDSWGQGTQVTVSS | high polyreactivity
QVQLVESGGGLVQAGGSLRLSCAASGFIFERYTMGWYRQAPGKERELVAAISDSGGSTYYADSVKGRFTISRDNAKNTVYLQMNSLKPEDTAVYYCAAKFRNYRPSKYYYWGQGTQVTVSS | high polyreactivity
QVQLVESGGGLVQAGGSLRLSCAASGSTFPVYAMGWYRQAPGKERELVAAISRAGSTNYADSVKGRFTISRDNAKNTVYLQMNSLKPEDTAVYYCAARGYLWAGEWYVRRDYWGQGTQVTVSS | high polyreactivity
QVQLVESGGGLDQAGGSLRLSCAASRSTFPHYAMGWYRQAPGKERELVAAIYSTGGSTYYADSVKGRFTISRDNAKNTVYLQMNSLKPEDTAVYYCAASRLYWGQGNQVTVSS | high polyreactivity
QVQLVESGGGLVQAGGSLRLSCAASGSTFIGYAMGWYRHAPGKERELVAGINWSSGSTNYADSVKGRFTISRDNAKNTVYLQMNSLIPEDTAVYYCAADLYWYAHREEYDYWGQGTQVTVSS | high polyreactivity
QVQLVESGGGLVQAGGSLRISSAASGFNSPSYAMGWYRQAPGKERELVAAISSGDSTNYADSVKGRFTISRDNAKNTVYLLMNSLKPEDTAVYYCAARYREQYDYWGQGTQVTVSS | low polyreactivity
QVQLVESGGGLVQAGGSLRLSCAASGRIVDIYAMGWYRQAPGTERELVAAITWRGGSTYYADSVKGRFTISRDNAKNTVYLQMNSLKPEDTAVYYCAVDFFTPRGSYYWGQGTQVTVSS | low polyreactivity
QVQLVESGGGLVQAGGSLRLSCAASGSIFRYYAMGWYRQAHGKERELVAVITSSGTSTYYADSVKGRFTISRDNAKNTVYLQMNSRKPEDTAVDYCAVYPIIYGRMDSWGQGTQVTVSS | low polyreactivity
QVQLVESGGGLVQAGGSLRLSCAASGFICGLNAMGLYRQAPGKERELVAAIRSASSTNYADSVKGRFTISRDNAKNTVYLQMNSLKPEDTAVYYCAAEYVTYQQGFWGYDYWGQGTQVTVSS | low polyreactivity
QVQLVESGGGLVQAGGRLRLSCAASGRIFKPNAMGSYRQAPGKEREFVARITRNTGSTYYADSVKGRFSISRDNEKNTVYLQMNSLKPEDNAVYDCAAGAPSYYYYWGHGTQVTVSS | high polyreactivity
QVQLVESGGGLVQAGGSLRLSCAASGSILLTNAMGWYRQAPGKERELVAAITSSGGSTSYADSVKGRFTISRDNAKNTVYIQMNSLKPEDTAVYYCAAAQRYRSQQFDHWGQGTQVTVSS | low polyreactivity
QVQLVESGGGLVQAGGSLRLSCAASGFTFDYNPMGWYRQAPGKERELVAAISNTGDSTYYADSVKGRFTISRDNAKNTDYLQMNSLKPDDTAVYYCAADCLFDVYWEYDYWGQGTQVTVSS | low polyreactivity
QVQLVESGGGLVQAGGSLRLSCAASGRTFPGNAMGWYRQAPGKERELVATISSGGTTNYADSVKGRFTISRDNAKTTVYLQMNSLKPEDTAVYYCATDTYHHKADYEYWGKGTQVTVSS | low polyreactivity
QVQLVESGGGLVQAGGSLRLSCAASGRTFSGNTMGWYRQAPGKERELVAVINSGTRTYYADSVKGRFTISRDNAKNTVYLHMNSLKPEDTAVYYCATRSKSPSTKYGYWGQGTQVTVSS | high polyreactivity
QVQLVESGGGLVQAGGSLRLSCAASGRIFSGNAMGWYRQAPGKERELVAAISWSGGSTYYADSVKGRFTISRDNAKNSVYLQMNSLKPEDTAVSYCNAPGYRRYGSRMGYWGQGTQVTVSS | high polyreactivity
QVHLVESGGGLVQAGGSLRLSCAASGFIFGSNAMGWSRQAPGKERELVAAITYSGASTYYADSVKGRFTISRDNAKNTVYLQMNSLKPEDTAVYYCNAVYSSVVDGSEGFDYWGQGTQVTVSS | low polyreactivity
QVQIVESGGGLVQAGGSLRLSCAASGGTFYVNDMGWYRQAPGKERELVATITYSGTSTYYADSVKGRFTISRDNAKNTVYLHMNSLKPEDTAVYYCATDVLLYFEPVNLEYWGQGTQVTVSS | low polyreactivity
QVQLVESGGGLVQAGGSLSLSCAATGRLFSWYTMGWYRQAPGKERELVAAISWSGTSTYYADSVKGRFTISRDNAKNTVYLQMNSLKPEDTAVYYCNKVNPANIRRSYDYWGQGTQVTVSS | high polyreactivity
QVQLVESGGGLVQAGGSLRLSCAASGSTFQFYAMGWYRQAPGKERELVASITSRGGNTHYADSVKGRFTISRDNAKNTVYLQMNSLKPEDTAVYYCAARGGWYGTYDYWGQGTQVTVSS | low polyreactivity
